{
  "source": "patent US20210171647A1",
  "about": "(WUXI BIOLOGICS SHANGHAI, published 2021)",
  "binders": {"B1": {"name": "1.134.9-u1-IgG1L (antibody, V domains shown)", "VH": "QVQLQESGPGLVKPSGTLSLTCAVSGGSISSYNWWSWVRQPPGKGLEWIGEIYHGGNTNYNPSLKSRVTMSVDNSKNQFSLKLSSVTAADTAVYYCARAPGDWGGSPYFDFWGQGTLVTVSS", "VL": "SSELTQDPAVSVALGQTVRITCQGDNLRTYYASWYQQKPGQAPILLIYGRNKRPSGIPDRFSGSSSGNTASLTITGAQAEDEAAYYCNSRDSSGNPVVFGGGTKLTVL", "notes": "fully human IgG1, lambda"}},
  "assay_in_all_cases": "ELISA, antibody coated, OX40-ECD.His mutant supernatant; relative to silent alanine substitutions;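 also: captured OX40 mutant protein detected with HRP-labelled anti-His antibody, absorbance read-out, scaled to the mean signal of control mutants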",
  "key": {"[1]": {"target": "T1, human OX40-ECD.His T35A (human, UniProt P43489 29-214)", "T1 construct": "extracellular domain; not shown: C-terminal His-tag", "T1 sequence (looked up)": "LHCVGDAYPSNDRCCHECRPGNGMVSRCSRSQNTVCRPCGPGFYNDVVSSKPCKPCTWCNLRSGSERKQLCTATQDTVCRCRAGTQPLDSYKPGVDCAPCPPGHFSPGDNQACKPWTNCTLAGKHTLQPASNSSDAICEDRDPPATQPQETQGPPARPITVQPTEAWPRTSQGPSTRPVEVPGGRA"}, "[2]": {"target": "T2, human OX40-ECD.His E167A (human, UniProt P43489 29-214)", "T2 construct": "extracellular domain; not shown: C-terminal His-tag", "T2 sequence (looked up)": "T1 sequence (looked up) with A7T, E139A"}, "[3]": {"target": "T3, human OX40-ECD.His T85A (human, UniProt P43489 29-214)", "T3 construct": "extracellular domain; not shown: C-terminal His-tag", "T3 sequence (looked up)": "T1 sequence (looked up) with A7T, T57A"}, "[4]": {"target": "T4, human OX40-ECD.His A101G (human, UniProt P43489 29-214)", "T4 construct": "extracellular domain; not shown: C-terminal His-tag", "T4 sequence (looked up)": "T1 sequence (looked up) with A7T, A73G"}, "[5]": {"target": "T5, human OX40-ECD.His A150G (human, UniProt P43489 29-214)", "T5 construct": "extracellular domain; not shown: C-terminal His-tag", "T5 sequence (looked up)": "T1 sequence (looked up) with A7T, A122G"}, "[6]": {"target": "T6, human OX40-ECD.His G92A (human, UniProt P43489 29-214)", "T6 construct": "extracellular domain; not shown: C-terminal His-tag", "T6 sequence (looked up)": "T1 sequence (looked up) with A7T, G64A"}, "[7]": {"target": "T7, human OX40-ECD.His V106A (human, UniProt P43489 29-214)", "T7 construct": "extracellular domain; not shown: C-terminal His-tag", "T7 sequence (looked up)": "T1 sequence (looked up) with A7T, V78A"}, "[8]": {"target": "T8, human OX40-ECD.His S59A (human, UniProt P43489 29-214)", "T8 construct": "extracellular domain; not shown: C-terminal His-tag", "T8 sequence (looked up)": "T1 sequence (looked up) with A7T, S31A"}, "[9]": {"target": "T9, human OX40-ECD.His S54A (human, UniProt P43489 29-214)", "T9 construct": "extracellular domain; not shown: C-terminal His-tag", "T9 sequence (looked up)": "T1 sequence (looked up) with A7T, S26A"}, "[10]": {"target": "T10, human OX40-ECD.His Y119A (human, UniProt P43489 29-214)", "T10 construct": "extracellular domain; not shown: C-terminal His-tag", "T10 sequence (looked up)": "T1 sequence (looked up) with A7T, Y91A"}},
  "note": "Positions count from the first letter of the chain named.",
  "data": [
    {"binder": "B1", "values": [
      {"measurement": "Fold Change", "setting": "[1]", "value": 1.02},
      {"measurement": "Fold Change", "setting": "[2]", "value": 0.998},
      {"measurement": "Fold Change", "setting": "[3]", "value": 0.808},
      {"measurement": "Fold Change", "setting": "[4]", "value": 0.881},
      {"measurement": "Fold Change", "setting": "[5]", "value": 0.96},
      {"measurement": "Fold Change", "setting": "[6]", "value": 0.233},
      {"measurement": "Fold Change", "setting": "[7]", "value": 0.662},
      {"measurement": "Fold Change", "setting": "[8]", "value": 1},
      {"measurement": "Fold Change", "setting": "[9]", "value": 0.993},
      {"measurement": "Fold Change", "setting": "[10]", "value": 0.995}
    ]}
  ]
}
